# In PMC10537722, “Proline Dehydrogenase and Pyrroline 5 Carboxylate Dehydrogenase from Mycobacterium tuberculosis: Evidence for Substrate Channeling” (Pathogens, 2023):
# Key:
# [1] = system: NC(=O)c1ccc[n+]([C@@H]2O[C@H](COP(=O)([O-])OP(=O)(O)OC[C@H]3O[C@@H](n4cnc5c(N)ncnc54)[C@H](O)[C@@H]3O)[C@@H](O)[C@H]2O)c1; experiment: purified protein; conditions: pH 7.0; 25.0 °C; varied: cofactor
# O=C(O)C1CCC=N1 = experiment: purified protein; conditions: NAD^+; pH 7.0; 25.0 °C
# [2] = target: T1, ∆^1-pyrroline-5-carboxylate (P5C) dehydrogenase (PruA) (Mycobacterium tuberculosis, UniProt O50443); experiment: biochemical
# T1 construct: gene rocA
# T1 sequence (O50443 1-543): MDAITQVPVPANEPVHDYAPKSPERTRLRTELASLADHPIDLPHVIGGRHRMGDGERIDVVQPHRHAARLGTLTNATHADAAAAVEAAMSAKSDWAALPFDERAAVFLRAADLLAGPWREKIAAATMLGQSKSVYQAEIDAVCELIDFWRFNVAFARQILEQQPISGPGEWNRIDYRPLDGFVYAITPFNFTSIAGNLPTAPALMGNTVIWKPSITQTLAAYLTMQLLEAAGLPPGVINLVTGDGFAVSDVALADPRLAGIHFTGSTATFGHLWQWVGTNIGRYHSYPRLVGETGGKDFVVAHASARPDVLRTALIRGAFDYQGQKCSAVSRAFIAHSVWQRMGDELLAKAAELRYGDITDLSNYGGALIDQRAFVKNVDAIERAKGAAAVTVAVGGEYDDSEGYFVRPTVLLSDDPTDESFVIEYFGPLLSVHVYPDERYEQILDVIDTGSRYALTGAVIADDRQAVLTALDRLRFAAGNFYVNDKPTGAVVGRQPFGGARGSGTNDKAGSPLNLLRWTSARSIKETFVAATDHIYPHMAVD
compound,measurement,setting,value
∆^1-pyrroline-5-carboxylate (P5C) dehydrogenase (PruA) (Mycobacterium tuberculosis H37Rv),Km,[1],33 ± 4.3 µM
same,Km,O=C(O)C1CCC=N1,120 ± 0.02 µM
same,kcat,O=C(O)C1CCC=N1,1.1 s⁻¹
same,kcat/Km,O=C(O)C1CCC=N1,8500 M⁻¹ s⁻¹
O=C(O)[C@@H]1CCCN1 [L-proline],Ki,[2],6.7 mM
